Data published in PMC9061721 (2022).

Legend:
[1] = target: SC/09 H1N1 HA protein (A/Sichuan/01/2009) (influenza A virus A/Sichuan/01/2009 …); test: ELISA
[2] = target: A/Hong Kong/01/1968 (H3N2) HA (influenza A virus A/Hong Kong/01/1968 …, UniProt Q91MA7); test: ELISA

B1: 28-12 (antibody, V domains shown)
VH: EVQLVESGGGLVQPGGSLRLSCAASGFTFSTYNMNWVRQAPGKGLEWLSYISTSSNTIYYADSVKGRFTISRDNAKNSLFLQMNSLRDEDTAVYYCARDRGCSSTNCYVVGYYFYGMDVWGQGTTVTVSS
VL: DIQMTQSPSSVSASVGDRVTITCRASQGISSYLAWYQLKPGRAPKLLIYGATRLQSGVPSRFSGSGSGTDFTLTISGLQPEDFATYHCQQADSFPLTFGQGTRLEIK
EC50 [1]: 0.0647 µg/mL | EC50 [2]: 0.0754 µg/mL
